These results are taken from paper PMC6807164, “The lipid transfer protein Saposin B does not directly bind CD1d for lipid antigen loading” (Wellcome Open Research, 2019).

Assay [1] concerns the target CD14 (Homo sapiens) (UniProt P08571). The note with it: cited from earlier work.
The target in assay [2] is Apolipoprotein B (Homo sapiens) (UniProt P04114). The note with it: cited from earlier work.
In assay [3] the target is T1, CD1d-β2m complex (glycosylated CD1d-H6 with untagged β2m) (human, UniProt P15813 20-301; P61769 21-119, glycosylated (N-linked glycans from expression in HEK293F)).
T1 construct: CD1d, human, extracellular domain, residues 20-301 of UniProt P15813; expressed behind the vector's N-terminal secretion signal; β-2-microglobulin, human, residues 21-119 of UniProt P61769; untagged; Carries endogenous human lipids as purified; The results call β2m full-length, the methods give residues 21-119; also called CD1d-H 6-β 2m; gCD1d; not shown: His6, C-terminal, kept
Put plainly: equilibrium binding assay (depletion of prey from the supernatant, no wash steps); CD1d-β2m on Ni-NTA agarose beads at 0-40 μM, SapB at 680 nM; 50 mM HEPES pH 7.0, 150 mM NaCl, 0.05% digitonin, 2.5 mM CaCl2, 2.5 mM MgCl2; 1 hour at room temperature; unbound SapB detected by SYPRO Ruby; both proteins with the endogenous lipids they co-purify with. The note with it: both partners purified.

Where only a bound is given, the exact number is not on record here.

Sequence of CD14 (Homo sapiens) (P08571 20-345): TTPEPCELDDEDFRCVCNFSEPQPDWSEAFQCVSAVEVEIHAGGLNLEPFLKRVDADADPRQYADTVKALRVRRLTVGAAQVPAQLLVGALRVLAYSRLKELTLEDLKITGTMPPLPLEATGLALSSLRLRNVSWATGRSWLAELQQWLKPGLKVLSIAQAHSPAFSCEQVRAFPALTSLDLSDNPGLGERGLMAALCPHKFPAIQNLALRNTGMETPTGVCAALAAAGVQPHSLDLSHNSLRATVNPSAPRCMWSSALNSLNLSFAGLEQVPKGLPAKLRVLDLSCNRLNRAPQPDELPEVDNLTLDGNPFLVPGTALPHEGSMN
Sequence of Apolipoprotein B (Homo sapiens) (P04114 28-2179): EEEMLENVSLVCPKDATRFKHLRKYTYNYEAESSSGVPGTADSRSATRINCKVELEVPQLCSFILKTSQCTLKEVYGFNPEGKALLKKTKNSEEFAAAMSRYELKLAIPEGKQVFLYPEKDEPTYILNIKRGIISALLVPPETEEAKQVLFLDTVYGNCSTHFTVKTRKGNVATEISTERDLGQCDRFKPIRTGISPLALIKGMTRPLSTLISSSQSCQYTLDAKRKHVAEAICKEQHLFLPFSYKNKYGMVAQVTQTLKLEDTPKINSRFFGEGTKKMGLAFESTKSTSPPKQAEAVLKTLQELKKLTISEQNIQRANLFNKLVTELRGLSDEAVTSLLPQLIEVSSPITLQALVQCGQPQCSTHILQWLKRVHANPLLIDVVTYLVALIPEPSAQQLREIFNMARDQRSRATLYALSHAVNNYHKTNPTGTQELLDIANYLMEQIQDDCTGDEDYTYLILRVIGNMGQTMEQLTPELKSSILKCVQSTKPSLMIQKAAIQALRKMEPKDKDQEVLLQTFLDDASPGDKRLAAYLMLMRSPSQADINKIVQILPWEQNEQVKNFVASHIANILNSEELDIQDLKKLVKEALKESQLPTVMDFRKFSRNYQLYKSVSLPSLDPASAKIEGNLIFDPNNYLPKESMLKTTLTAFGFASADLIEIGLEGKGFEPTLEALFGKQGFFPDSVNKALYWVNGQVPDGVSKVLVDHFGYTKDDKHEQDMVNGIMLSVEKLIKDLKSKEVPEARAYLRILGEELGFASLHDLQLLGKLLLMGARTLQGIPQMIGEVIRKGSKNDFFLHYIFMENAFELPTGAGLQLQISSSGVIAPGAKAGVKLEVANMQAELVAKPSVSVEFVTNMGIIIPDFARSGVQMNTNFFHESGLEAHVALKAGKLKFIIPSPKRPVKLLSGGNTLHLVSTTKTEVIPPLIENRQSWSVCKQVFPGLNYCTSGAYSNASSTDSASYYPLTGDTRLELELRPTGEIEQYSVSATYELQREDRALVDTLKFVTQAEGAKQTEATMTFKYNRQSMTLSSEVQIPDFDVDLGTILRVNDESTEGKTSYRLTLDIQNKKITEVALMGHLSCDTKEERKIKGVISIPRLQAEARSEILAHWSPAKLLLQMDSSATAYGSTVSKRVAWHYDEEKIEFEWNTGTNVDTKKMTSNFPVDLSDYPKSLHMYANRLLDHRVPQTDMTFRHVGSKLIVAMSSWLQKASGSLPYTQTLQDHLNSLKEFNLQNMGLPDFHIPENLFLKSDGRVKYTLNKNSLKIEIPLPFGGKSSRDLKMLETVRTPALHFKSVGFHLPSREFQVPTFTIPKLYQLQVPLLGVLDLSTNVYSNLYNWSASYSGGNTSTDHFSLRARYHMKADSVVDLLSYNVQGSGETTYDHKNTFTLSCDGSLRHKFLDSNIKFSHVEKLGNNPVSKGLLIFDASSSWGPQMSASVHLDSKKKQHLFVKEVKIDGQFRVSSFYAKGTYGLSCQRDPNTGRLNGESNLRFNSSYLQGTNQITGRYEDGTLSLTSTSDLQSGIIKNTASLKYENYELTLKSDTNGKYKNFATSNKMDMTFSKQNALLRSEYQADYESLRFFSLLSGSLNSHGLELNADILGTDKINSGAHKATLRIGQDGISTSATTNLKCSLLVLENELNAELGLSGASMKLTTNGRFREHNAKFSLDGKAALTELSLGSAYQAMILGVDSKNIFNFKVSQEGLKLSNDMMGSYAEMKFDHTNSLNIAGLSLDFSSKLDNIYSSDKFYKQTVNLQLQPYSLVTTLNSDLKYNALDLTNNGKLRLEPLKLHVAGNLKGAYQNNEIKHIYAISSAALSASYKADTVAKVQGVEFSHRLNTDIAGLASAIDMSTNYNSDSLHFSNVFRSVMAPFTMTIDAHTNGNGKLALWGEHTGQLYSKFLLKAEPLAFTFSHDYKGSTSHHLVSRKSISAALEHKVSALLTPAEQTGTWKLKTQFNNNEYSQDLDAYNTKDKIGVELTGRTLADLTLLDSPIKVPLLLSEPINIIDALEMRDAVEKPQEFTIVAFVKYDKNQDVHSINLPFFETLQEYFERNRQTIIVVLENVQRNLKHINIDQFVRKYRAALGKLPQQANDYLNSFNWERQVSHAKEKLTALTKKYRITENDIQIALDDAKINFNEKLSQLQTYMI

With “LPS binding protein (LBP) (from UniProt P18428)”, in assay [1], the Kd is 5.52 nM.

With “Microsomal Triglyceride Transfer protein (from UniProt P55157)”, the Kd in assay [2] was 20 nM.

B1: Saposin B, untagged, expressed in E. coli (unglycosylated) (natural protein, human, UniProt P07602 195-274, looked up)
chain: GDVCQDCIQMVTDIQTAVRTNSTFVQALVEHVKEECDRLGPGMADICKNYISQYSEIAIQMMMHMQPKEICALVGFCDEV
notes: Saposin B, the segment of human prosaposin (PSAP) residues 195-274, UniProt P07602; Cloned into pET-15b by NcoI and XhoI to give untagged protein; Co-purifies with E. coli lipid; also called SapB; ugSapB; source: E. coli Origami (DE3), purified (heat treatment, anion exchange, SEC)
Take B1: the Kd in assay [3] was greater than 40 µM.

As a reminder, the Kd is a measure of binding affinity in units of concentration.
